This is an account of results in EP4455161A1 (ONO Pharmaceutical Co., Ltd., dated 2024).

Test [1] deals with T1, CRMP2 peptide H-EVSVTPKTVTPASSAKTSPAKQQC-NH2 (C-terminal amide).
T1 peptide: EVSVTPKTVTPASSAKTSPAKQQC
The experiment in a line: ELISA. (In general: An ELISA detects its analyte on a solid surface through an enzyme-linked reagent.)

In test [2] the target is T2, pCRMP2 peptide H-EVSV(pT)PKTV(pT)PASSAKT(pS)PAKQQC-NH2 (phosphothreonine at T509 and T514, phosphoserine at S522 (CRMP2 numbering); C-terminal amide).
T2 construct: also called pCRMP2 peptide containing three phospho-sites T509, T514 and S522
T2 peptide: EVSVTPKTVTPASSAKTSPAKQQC
The experiment in a line: ELISA.

Test [3] concerns the target T3, CRMP2 peptide TVTPASSAKTSPAKQQAPPVRC-NH2 (C-terminal amide).
T3 peptide: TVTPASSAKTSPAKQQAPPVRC
The experiment in a line: ELISA.

Test [4] deals with T4, pCRMP2 peptide H-TVTPASSAKT(pS)PAKQQAPPVRC-NH2 (phosphoserine at S522 (CRMP2 numbering); C-terminal amide).
T4 construct: also called pCRMP2 peptide containing a single S522 phospho-site
T4 peptide: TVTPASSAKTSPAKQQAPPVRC
Kind of test: ELISA.

Test [5] addresses T5, Peptide 4152960: ….
T5 construct: also called non-phosphorylated CRMP2 peptide
The experiment in a line: direct ELISA on coated peptide (Fig. 5).

Test [6] concerns the target T6, Peptide 4152963: …(p)S522PAKQQA (phosphoserine at S522 (CRMP2 numbering)).
T6 construct: also called CRMP2 peptide with phosphorylation at S522
The experiment in a line: direct ELISA on coated peptide (Fig. 5).

Test [7] addresses T7, Peptide 4152961: VCEVSV(p)T509… (phosphothreonine at T509 (CRMP2 numbering)).
T7 construct: also called CRMP2 peptide with phosphorylation at T509
The experiment in a line: direct ELISA on coated peptide (Fig. 5).

The target of test [8] is T8, CRMP2 peptide 129 (VTPASSAKTSPAKQQ) (human).
T8 construct: 15-mer spotted on a cellulose membrane array
T8 peptide: VTPASSAKTSPAKQQ
Kind of test: overlapping peptide array.

Test [9] has as its target T9, CRMP2 peptide 128 (TPKTVTPASSAKTSP) (human).
T9 construct: 15-mer spotted on a cellulose membrane array
T9 peptide: TPKTVTPASSAKTSP
The experiment in a line: overlapping peptide array.

The target of test [10] is T10, recombinant human full length CRMP1 (human, UniProt Q14194 1-572).
T10 construct: mature
Kind of test: direct ELISA, recombinant human CRMP1-5 coated at 5 µg/mL.

T10 sequence (Q14194 whole entry): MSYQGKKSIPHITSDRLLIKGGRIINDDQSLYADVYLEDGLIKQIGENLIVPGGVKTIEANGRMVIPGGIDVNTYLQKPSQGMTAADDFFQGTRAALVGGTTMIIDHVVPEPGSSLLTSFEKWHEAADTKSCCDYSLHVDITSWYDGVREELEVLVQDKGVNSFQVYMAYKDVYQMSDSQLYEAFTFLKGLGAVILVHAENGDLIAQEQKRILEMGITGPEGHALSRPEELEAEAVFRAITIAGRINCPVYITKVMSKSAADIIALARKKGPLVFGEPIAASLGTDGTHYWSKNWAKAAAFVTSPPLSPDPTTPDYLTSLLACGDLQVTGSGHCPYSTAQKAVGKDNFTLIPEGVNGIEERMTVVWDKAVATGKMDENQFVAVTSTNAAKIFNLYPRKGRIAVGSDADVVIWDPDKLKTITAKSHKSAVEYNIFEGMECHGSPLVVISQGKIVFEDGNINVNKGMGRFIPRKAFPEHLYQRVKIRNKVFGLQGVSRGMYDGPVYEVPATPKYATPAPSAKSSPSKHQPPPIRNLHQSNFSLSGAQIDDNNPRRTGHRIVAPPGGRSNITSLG

B1: NI-504.3E7 (antibody, human IgG1, V domains shown)
VH: EVQLVETGGGFVQPGGSLQLSCAVSGFPYSGTSFHWVRQVSGKGLEWIGRIRSKSDNYETSYTESLKGRFIVSRDDSKNMVRLHLYSLRTEDTALYYCTTGIIVVDTSYLDHWGRGTLVTVSS
VL: SYELTQPPSASVSPGQTARITCSGAALPKKYAYWYQLKSGQAPVLVIYEDTKRPSGIPERFSGSSSGTLATLTINGALVEDEADYYCYSTDSSGDVWVFGGGTKLTVL
notes: VH_3E7 + VL_3E7
Take B1: the binding result in test [1], in test [2], in test [3], in [4], in [5] and in test [6] was “binds” throughout. Moreover, the binding result in test [7], in [8] and in [9] was “binds” in each case. In addition, the EC50 (as a rule, the midpoint of the concentration-response curve) in test [10] is 69 nM.
